Test results from PMC3393671.

Biological target: ROP5 of T. gondii strain RH-YFP (isoforms not told apart), F2YGR7
Assay: pull-down (quantitated Western blot)
Conditions: chain shown with the change; 25 µg protein/100 µl 1:1 bead suspension; RH-YFP strain T. gondii lysates; 3E2 antibody (anti-ROP5); GST signal subtracted; parent: est. 100; read off a plot

Sequence of ROP5 of T. gondii strain RH-YFP (isoforms not told apart), F2YGR7 (F2YGR7 25-549): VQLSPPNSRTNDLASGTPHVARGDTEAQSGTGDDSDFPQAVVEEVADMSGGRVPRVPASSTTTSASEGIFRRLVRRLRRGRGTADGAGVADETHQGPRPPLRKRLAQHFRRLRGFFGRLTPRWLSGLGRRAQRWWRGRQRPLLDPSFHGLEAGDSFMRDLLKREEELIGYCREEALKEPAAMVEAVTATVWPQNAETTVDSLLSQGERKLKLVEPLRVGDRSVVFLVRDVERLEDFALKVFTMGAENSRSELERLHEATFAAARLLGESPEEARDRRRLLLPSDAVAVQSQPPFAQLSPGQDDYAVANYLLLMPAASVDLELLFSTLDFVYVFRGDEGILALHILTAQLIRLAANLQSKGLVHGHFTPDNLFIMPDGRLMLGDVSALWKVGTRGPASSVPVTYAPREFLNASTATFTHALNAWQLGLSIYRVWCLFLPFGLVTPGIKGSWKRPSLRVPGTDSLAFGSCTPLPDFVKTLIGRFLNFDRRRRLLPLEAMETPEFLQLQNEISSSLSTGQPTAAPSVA

Row | Binder | percent of parent (% of wild-type intensity)
1 | GST-Irga6, Q9QZ85 E110R; R111E (protein) MGQLFSSPKSDENNDLPSSFTGYFKKFNTGRKIISQEILNLIELRMRKGNIQLTNSAISDALKEIDSSVLNVAVTGETGSGKSSFINTLRGIGNEEEGAAKTGVVEVTMREHPYKHPNIPNVVFWDLPGIGSTNFPPNTYLEKMKFYEYDFFIIISATRFKKNDIDIAKAISMMKKEFYFVRTKVDSDITNEADGKPQTFDKEKVLQDIRLNCVNTFRENGIAEPPIFLLSNKNVCHYDFPVLMDKLISDLPIYKRHNFMVSLPNITDSVIEKKRQFLKQRIWLEGFAADLVNIIPSLTFLLDSDLETLKKSMKFYRTVFGVDETSLQRLARDWEIEVDQVEAMIKSPAVFKPTDEETIQERLSRYIQEFCLANGYLLPKNSFLKEIFYLKYYFLDMVTEDAKTLLKEICL | 17
2 | GST-Irga6, Q9QZ85 E77A (protein) MGQLFSSPKSDENNDLPSSFTGYFKKFNTGRKIISQEILNLIELRMRKGNIQLTNSAISDALKEIDSSVLNVAVTGATGSGKSSFINTLRGIGNEEEGAAKTGVVEVTMERHPYKHPNIPNVVFWDLPGIGSTNFPPNTYLEKMKFYEYDFFIIISATRFKKNDIDIAKAISMMKKEFYFVRTKVDSDITNEADGKPQTFDKEKVLQDIRLNCVNTFRENGIAEPPIFLLSNKNVCHYDFPVLMDKLISDLPIYKRHNFMVSLPNITDSVIEKKRQFLKQRIWLEGFAADLVNIIPSLTFLLDSDLETLKKSMKFYRTVFGVDETSLQRLARDWEIEVDQVEAMIKSPAVFKPTDEETIQERLSRYIQEFCLANGYLLPKNSFLKEIFYLKYYFLDMVTEDAKTLLKEICL | 34
3 | GST-Irga6, Q9QZ85 M173W (protein) MGQLFSSPKSDENNDLPSSFTGYFKKFNTGRKIISQEILNLIELRMRKGNIQLTNSAISDALKEIDSSVLNVAVTGETGSGKSSFINTLRGIGNEEEGAAKTGVVEVTMERHPYKHPNIPNVVFWDLPGIGSTNFPPNTYLEKMKFYEYDFFIIISATRFKKNDIDIAKAISWMKKEFYFVRTKVDSDITNEADGKPQTFDKEKVLQDIRLNCVNTFRENGIAEPPIFLLSNKNVCHYDFPVLMDKLISDLPIYKRHNFMVSLPNITDSVIEKKRQFLKQRIWLEGFAADLVNIIPSLTFLLDSDLETLKKSMKFYRTVFGVDETSLQRLARDWEIEVDQVEAMIKSPAVFKPTDEETIQERLSRYIQEFCLANGYLLPKNSFLKEIFYLKYYFLDMVTEDAKTLLKEICL | 25
4 | GST-Irga6, Q9QZ85 I209R (protein) MGQLFSSPKSDENNDLPSSFTGYFKKFNTGRKIISQEILNLIELRMRKGNIQLTNSAISDALKEIDSSVLNVAVTGETGSGKSSFINTLRGIGNEEEGAAKTGVVEVTMERHPYKHPNIPNVVFWDLPGIGSTNFPPNTYLEKMKFYEYDFFIIISATRFKKNDIDIAKAISMMKKEFYFVRTKVDSDITNEADGKPQTFDKEKVLQDRRLNCVNTFRENGIAEPPIFLLSNKNVCHYDFPVLMDKLISDLPIYKRHNFMVSLPNITDSVIEKKRQFLKQRIWLEGFAADLVNIIPSLTFLLDSDLETLKKSMKFYRTVFGVDETSLQRLARDWEIEVDQVEAMIKSPAVFKPTDEETIQERLSRYIQEFCLANGYLLPKNSFLKEIFYLKYYFLDMVTEDAKTLLKEICL | 5
5 | GST-Irga6, Q9QZ85 R159E (protein) MGQLFSSPKSDENNDLPSSFTGYFKKFNTGRKIISQEILNLIELRMRKGNIQLTNSAISDALKEIDSSVLNVAVTGETGSGKSSFINTLRGIGNEEEGAAKTGVVEVTMERHPYKHPNIPNVVFWDLPGIGSTNFPPNTYLEKMKFYEYDFFIIISATEFKKNDIDIAKAISMMKKEFYFVRTKVDSDITNEADGKPQTFDKEKVLQDIRLNCVNTFRENGIAEPPIFLLSNKNVCHYDFPVLMDKLISDLPIYKRHNFMVSLPNITDSVIEKKRQFLKQRIWLEGFAADLVNIIPSLTFLLDSDLETLKKSMKFYRTVFGVDETSLQRLARDWEIEVDQVEAMIKSPAVFKPTDEETIQERLSRYIQEFCLANGYLLPKNSFLKEIFYLKYYFLDMVTEDAKTLLKEICL | 5.5
6 | GST-Irga6, Q9QZ85 E106R (protein) MGQLFSSPKSDENNDLPSSFTGYFKKFNTGRKIISQEILNLIELRMRKGNIQLTNSAISDALKEIDSSVLNVAVTGETGSGKSSFINTLRGIGNEEEGAAKTGVVRVTMERHPYKHPNIPNVVFWDLPGIGSTNFPPNTYLEKMKFYEYDFFIIISATRFKKNDIDIAKAISMMKKEFYFVRTKVDSDITNEADGKPQTFDKEKVLQDIRLNCVNTFRENGIAEPPIFLLSNKNVCHYDFPVLMDKLISDLPIYKRHNFMVSLPNITDSVIEKKRQFLKQRIWLEGFAADLVNIIPSLTFLLDSDLETLKKSMKFYRTVFGVDETSLQRLARDWEIEVDQVEAMIKSPAVFKPTDEETIQERLSRYIQEFCLANGYLLPKNSFLKEIFYLKYYFLDMVTEDAKTLLKEICL | 110
7 | GST-Irga6, Q9QZ85 K162E (protein) MGQLFSSPKSDENNDLPSSFTGYFKKFNTGRKIISQEILNLIELRMRKGNIQLTNSAISDALKEIDSSVLNVAVTGETGSGKSSFINTLRGIGNEEEGAAKTGVVEVTMERHPYKHPNIPNVVFWDLPGIGSTNFPPNTYLEKMKFYEYDFFIIISATRFKENDIDIAKAISMMKKEFYFVRTKVDSDITNEADGKPQTFDKEKVLQDIRLNCVNTFRENGIAEPPIFLLSNKNVCHYDFPVLMDKLISDLPIYKRHNFMVSLPNITDSVIEKKRQFLKQRIWLEGFAADLVNIIPSLTFLLDSDLETLKKSMKFYRTVFGVDETSLQRLARDWEIEVDQVEAMIKSPAVFKPTDEETIQERLSRYIQEFCLANGYLLPKNSFLKEIFYLKYYFLDMVTEDAKTLLKEICL | 3.5
8 | GST-Irga6, Q9QZ85 N212R (protein) MGQLFSSPKSDENNDLPSSFTGYFKKFNTGRKIISQEILNLIELRMRKGNIQLTNSAISDALKEIDSSVLNVAVTGETGSGKSSFINTLRGIGNEEEGAAKTGVVEVTMERHPYKHPNIPNVVFWDLPGIGSTNFPPNTYLEKMKFYEYDFFIIISATRFKKNDIDIAKAISMMKKEFYFVRTKVDSDITNEADGKPQTFDKEKVLQDIRLRCVNTFRENGIAEPPIFLLSNKNVCHYDFPVLMDKLISDLPIYKRHNFMVSLPNITDSVIEKKRQFLKQRIWLEGFAADLVNIIPSLTFLLDSDLETLKKSMKFYRTVFGVDETSLQRLARDWEIEVDQVEAMIKSPAVFKPTDEETIQERLSRYIQEFCLANGYLLPKNSFLKEIFYLKYYFLDMVTEDAKTLLKEICL | 2.7
9 | GST-Irga6, Q9QZ85 T88R (protein) MGQLFSSPKSDENNDLPSSFTGYFKKFNTGRKIISQEILNLIELRMRKGNIQLTNSAISDALKEIDSSVLNVAVTGETGSGKSSFINRLRGIGNEEEGAAKTGVVEVTMERHPYKHPNIPNVVFWDLPGIGSTNFPPNTYLEKMKFYEYDFFIIISATRFKKNDIDIAKAISMMKKEFYFVRTKVDSDITNEADGKPQTFDKEKVLQDIRLNCVNTFRENGIAEPPIFLLSNKNVCHYDFPVLMDKLISDLPIYKRHNFMVSLPNITDSVIEKKRQFLKQRIWLEGFAADLVNIIPSLTFLLDSDLETLKKSMKFYRTVFGVDETSLQRLARDWEIEVDQVEAMIKSPAVFKPTDEETIQERLSRYIQEFCLANGYLLPKNSFLKEIFYLKYYFLDMVTEDAKTLLKEICL | 51
10 | GST-Irga6, Q9QZ85 K161E (protein) MGQLFSSPKSDENNDLPSSFTGYFKKFNTGRKIISQEILNLIELRMRKGNIQLTNSAISDALKEIDSSVLNVAVTGETGSGKSSFINTLRGIGNEEEGAAKTGVVEVTMERHPYKHPNIPNVVFWDLPGIGSTNFPPNTYLEKMKFYEYDFFIIISATRFEKNDIDIAKAISMMKKEFYFVRTKVDSDITNEADGKPQTFDKEKVLQDIRLNCVNTFRENGIAEPPIFLLSNKNVCHYDFPVLMDKLISDLPIYKRHNFMVSLPNITDSVIEKKRQFLKQRIWLEGFAADLVNIIPSLTFLLDSDLETLKKSMKFYRTVFGVDETSLQRLARDWEIEVDQVEAMIKSPAVFKPTDEETIQERLSRYIQEFCLANGYLLPKNSFLKEIFYLKYYFLDMVTEDAKTLLKEICL | 1
11 | GST-Irga6, Q9QZ85 K145E (protein) MGQLFSSPKSDENNDLPSSFTGYFKKFNTGRKIISQEILNLIELRMRKGNIQLTNSAISDALKEIDSSVLNVAVTGETGSGKSSFINTLRGIGNEEEGAAKTGVVEVTMERHPYKHPNIPNVVFWDLPGIGSTNFPPNTYLEKMEFYEYDFFIIISATRFKKNDIDIAKAISMMKKEFYFVRTKVDSDITNEADGKPQTFDKEKVLQDIRLNCVNTFRENGIAEPPIFLLSNKNVCHYDFPVLMDKLISDLPIYKRHNFMVSLPNITDSVIEKKRQFLKQRIWLEGFAADLVNIIPSLTFLLDSDLETLKKSMKFYRTVFGVDETSLQRLARDWEIEVDQVEAMIKSPAVFKPTDEETIQERLSRYIQEFCLANGYLLPKNSFLKEIFYLKYYFLDMVTEDAKTLLKEICL | 100
12 | GST-Irga6, Q9QZ85 P197H (protein) MGQLFSSPKSDENNDLPSSFTGYFKKFNTGRKIISQEILNLIELRMRKGNIQLTNSAISDALKEIDSSVLNVAVTGETGSGKSSFINTLRGIGNEEEGAAKTGVVEVTMERHPYKHPNIPNVVFWDLPGIGSTNFPPNTYLEKMKFYEYDFFIIISATRFKKNDIDIAKAISMMKKEFYFVRTKVDSDITNEADGKHQTFDKEKVLQDIRLNCVNTFRENGIAEPPIFLLSNKNVCHYDFPVLMDKLISDLPIYKRHNFMVSLPNITDSVIEKKRQFLKQRIWLEGFAADLVNIIPSLTFLLDSDLETLKKSMKFYRTVFGVDETSLQRLARDWEIEVDQVEAMIKSPAVFKPTDEETIQERLSRYIQEFCLANGYLLPKNSFLKEIFYLKYYFLDMVTEDAKTLLKEICL | 2.8
13 | GST-Irga6, Q9QZ85 S132R (protein) MGQLFSSPKSDENNDLPSSFTGYFKKFNTGRKIISQEILNLIELRMRKGNIQLTNSAISDALKEIDSSVLNVAVTGETGSGKSSFINTLRGIGNEEEGAAKTGVVEVTMERHPYKHPNIPNVVFWDLPGIGRTNFPPNTYLEKMKFYEYDFFIIISATRFKKNDIDIAKAISMMKKEFYFVRTKVDSDITNEADGKPQTFDKEKVLQDIRLNCVNTFRENGIAEPPIFLLSNKNVCHYDFPVLMDKLISDLPIYKRHNFMVSLPNITDSVIEKKRQFLKQRIWLEGFAADLVNIIPSLTFLLDSDLETLKKSMKFYRTVFGVDETSLQRLARDWEIEVDQVEAMIKSPAVFKPTDEETIQERLSRYIQEFCLANGYLLPKNSFLKEIFYLKYYFLDMVTEDAKTLLKEICL | 45
